# How the values were obtained:
# [1] = tested on: HA-KANK1; assay: Streptavidin pull down of BioGFP-talin1 constructs with HA-KANK1, Western blot; type: binding; settings: HEK293T cells
# Text: BioGFP-tagged KANK1 mutants were constructed using PCR and pBioGFP-C1 vector as previously described ([van der Vaart et al., 2013]). Rescue constructs for BioGFP-tagged KANK1 were either based on the version previously described ([van der Vaart et al., 2013]) or a version obtained by PCR-based mutagenesis of the sequence […] to […]. mCherry-tagged paxillin construct was made by replacing GFP from pQC-GPXN ([Bouchet et al., 2011]) by mCherry (pmCherry-C1, Clontech). TagRFP-tagged paxillin construct was made by PCR-based amplification and cloning in pTagRFP-T-C1 (kind gift from Y. Mimori-Kiyosue, Riken Institute, Japan). HA-tagged KANK1 construct was generated by cloning KANK1 coding sequence into pMT2-SM-HA (gift of C. Hoogenraad, Utrecht University, The Netherlands). pLVX-IRES-Neo (pLVIN) vectors was constructed by cloning the IRES-neomycin resistance cassette from the pQCXIN plasmid (Clontech) into the pLVX-IRES-Puro plasmid (Clontech). […]
# Streptavidin-based pull down assays of biotinylated proteins expressed using pBioGFP-C1 constructs transfected in HEK293T cells was performed and analyzed as previously described ([van der Vaart et al., 2013]). […] For RP-nanoLC-MS/MS, samples were resuspended in 10% formic acid (FA) / 5% DMSO and was analyzed using a Proxeon Easy-nLC100 (Thermo Scientific) connected to an Orbitrap Q-Exactive mass spectrometer. […]
# [2] = tested on: microtubule plus ends in HeLa cells; assay: Angles of microtubule growth relative to the cell margin; type: cell-based, human; settings: KANK1/2-depleted HeLa rescued, majority of microtubules at the cell margin
# Method: (§1) nEB3-mRFP dynamics was recorded by 0.5 s interval time lapse TIRF imaging. Microtubule growth was measured using kymographs obtained from EB3-mRFP time lapse image series, plotted and presented as previously described ([van der Vaart et al., 2013]). Ratio of microtubule growth in cell center to periphery was obtained as values for individual cells. Microtubule growth trajectory angle to the cell edge was manually measured in ImageJ using tracks obtained by maximum intensity projection of EB3-mRFP image series.
# [3] = tested on: microtubule plus ends in HeLa cells; assay: Ratio of microtubule growth rate in the cell center and at the cell edge; type: cell-based, human; settings: depletion and rescue, EB3-mRFP
# Method: as §1
molecule,measurement,setting,value
"KANK1: full-length KANK1, BioGFP- or GFP-tagged; siRNA-resistant version for rescue (protein, biotinylated on the Bio tag (by BirA); left off: biotinylation (Bio) tag, end not stated, kept | GFP, end not stated, kept, full-length KANK1, BioGFP- or GFP-tagged; siRNA-resistant version for rescue) MAHTTKVNGSASGKAGDILSGDQDKEQKDPYFVETPYGYQLDLDFLKYVDDIQKGNTIKRLNIQKRRKPSVPCPEPRTTSGQQGIWTSTESLSSSNSDDNKQCPNFLIARSQVTSTPISKPPPPLETSLPFLTIPENRQLPPPSPQLPKHNLHVTKTLMETRRRLEQERATMQMTPGEFRRPRLASFGGMGTTSSLPSFVGSGNHNPAKHQLQNGYQGNGDYGSYAPAAPTTSSMGSSIRHSPLSSGISTPVTNVSPMHLQHIREQMAIALKRLKELEEQVRTIPVLQVKISVLQEEKRQLVSQLKNQRAASQINVCGVRKRSYSAGNASQLEQLSRARRSGGELYIDYEEEEMETVEQSTQRIKEFRQLTADMQALEQKIQDSSCEASSELRENGECRSVAVGAEENMNDIVVYHRGSRSCKDAAVGTLVEMRNCGVSVTEAMLGVMTEADKEIELQQQTIESLKEKIYRLEVQLRETTHDREMTKLKQELQAAGSRKKVDKATMAQPLVFSKVVEAVVQTRDQMVGSHMDLVDTCVGTSVETNSVGISCQPECKNKVVGPELPMNWWIVKERVEMHDRCAGRSVEMCDKSVSVEVSVCETGSNTEESVNDLTLLKTNLNLKEVRSIGCGDCSVDVTVCSPKECASRGVNTEAVSQVEAAVMAVPRTADQDTSTDLEQVHQFTNTETATLIESCTNTCLSTLDKQTSTQTVETRTVAVGEGRVKDINSSTKTRSIGVGTLLSGHSGFDRPSAVKTKESGVGQININDNYLVGLKMRTIACGPPQLTVGLTASRRSVGVGDDPVGESLENPQPQAPLGMMTGLDHYIERIQKLLAEQQTLLAENYSELAEAFGEPHSQMGSLNSQLISTLSSINSVMKSASTEELRNPDFQKTSLGKITGNYLGYTCKCGGLQSGSPLSSQTSQPEQEVGTSEGKPISSLDAFPTQEGTLSPVNLTDDQIAAGLYACTNNESTLKSIMKKKDGNKDSNGAKKNLQFVGINGGYETTSSDDSSSDESSSSESDDECDVIEYPLEEEEEEEDEDTRGMAEGHHAVNIEGLKSARVEDEMQVQECEPEKVEIRERYELSEKMLSACNLLKNTINDPKALTSKDMRFCLNTLQHEWFRVSSQKSAIPAMVGDYIAAFEAISPDVLRYVINLADGNGNTALHYSVSHSNFEIVKLLLDADVCNVDHQNKAGYTPIMLAALAAVEAEKDMRIVEELFGCGDVNAKASQAGQTALMLAVSHGRIDMVKGLLACGADVNIQDDEGSTALMCASEHGHVEIVKLLLAQPGCNGHLEDNDGSTALSIALEAGHKDIAVLLYAHVNFAKAQSPGTPRLGRKTSPGPTHRGSFD",interaction of talin1 constructs with KANK1 (in words),[1],binds to the talin1 rod domain R7
same,angle of microtubule growth to the cell edge,[2],60–80 °
same,"microtubule growth, fold slower at cell margin/edge than in cell center",[3],~2.5 fold

# — publication PMC4995097, “Talin-KANK1 interaction controls the recruitment of cortical microtubule stabilizing complexes to focal adhesions” (eLife, 2016)
